Measurements reported in the supplement of paper PMC7877785.
± gives the uncertainty stated by the source.

Test: self-splicing fitness, log relative to wild type (ln ratio); higher = more splicing; Tetrahymena group I intron in knt gene, E. coli kanamycin selection, DiMSum; sequences stand for … in CUCUCU…GGAGGGAAAAGUUAUCAGGCAUGCACCUGGUAGCUAGUCUUUAAACCAAUAGAUUGCAUCGGUUUAAAAGGCAAGACCGUCAAAUUGCGGGAAAGGGGUCAACAGCCGUUCAGUACCAAGUCUCAGGGGAAACUUUGAGAUGGCCUUGCAAAGGGUAUGGUAAUAAGCUGACGGACAUGGUCCUAACCACGCAGCCAAGUCCUAAGUCAACAGAUCUUCUGUUGAUAUGGAUGCAGUUCACAGACUAAAUGUCGGUCGGGGAAGAUGUAUUCUUCUCAUAAGAUAUAGUCGGACCUCUCCUUAAUGGGAGCUAGCGGAUGAAGUGAUGCAACACUGGAGCCGCUGGGAACUAAUUUGUAUGCGAAAGUAUAUUGAUUAGUUUUGGAGUACUCGUGGUCG
In short: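 Six replicate transformations of E. coli BL21(DE3) with a pET-22b(+) library were grown overnight at 37°C or 30°C. The library randomised all eight P1ex-region intron nucleotides, the intron lying in the knt kanamycin-resistance gene, and plates were LB agar with or without 25 μg/mL kanamycin plus 100 μg/mL carbenicillin, 50 μM IPTG and 0.2% rhamnose. Pooled colonies were amplicon-sequenced on an Illumina HiSeq 2500, and fitness is the DiMSum error-weighted combination of wild-type-normalised replicate fold changes, kanamycin versus none.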

Row | Sequence | self-splicing fitness (ln) (30 °C) | self-splicing fitness (ln) (37 °C)
1 | CGACAGCAAUAUUACGACAU | -2.444 ± 0.014 | -1.33 ± 0.033
2 | ACUCAGCAAUAUUACGCGAU | -3.34 ± 0.16 | -2.18 ± 0.2
3 | GUCGAGCAAUAUUACGGUGC | -2.4 ± 0.16 | -0.222 ± 0.13
4 | GUAUAGCAAUAUUACGAUUU | -1.63 ± 0.11 | 0.247 ± 0.13
5 | AGUAAGCAAUAUUACGGUAC | -2.95 ± 0.24 | -2.27 ± 0.31
6 | GGGGAGCAAUAUUACGAUGC | -1.06 ± 0.42 | 
7 | GGAGAGCAAUAUUACGGUUU | -2.6 ± 0.094 | -1.15 ± 0.092
8 | GAUGAGCAAUAUUACGCGAG | -0.593 ± 0.16 | -0.578 ± 0.2
9 | UCGGAGCAAUAUUACGUCCA | -2.06 ± 0.48 | -0.639 ± 0.37
10 | CUCCAGCAAUAUUACGACGU | -3.83 ± 0.21 | -2.01 ± 0.21
11 | CUGUAGCAAUAUUACGAGGU | -4.23 ± 0.28 | -2.42 ± 0.21
12 | CGUAAGCAAUAUUACGCGUC | -3.79 ± 0.21 | -2.87 ± 0.19
13 | UCUCAGCAAUAUUACGCUGA | -2.7 ± 0.25 | -3.19 ± 0.4
14 | CUGCAGCAAUAUUACGGUCC | -3.4 ± 0.23 | -2.99 ± 0.37
15 | UAAAAGCAAUAUUACGUGCG | -0.348 ± 0.07 | -0.119 ± 0.09
16 | UGAAAGCAAUAUUACGAAUA | -0.955 ± 0.098 | -0.396 ± 0.12
17 | UUCGAGCAAUAUUACGGACG | -1.8 ± 0.18 | -1.42 ± 0.24
18 | GUUCAGCAAUAUUACGUGCU |  | -2.98 ± 0.28
19 | CGUCAGCAAUAUUACGCCCG | -1.23 ± 0.17 | -0.0073 ± 0.24
20 | GAUAAGCAAUAUUACGUUUC | -3.88 ± 0.18 | -2.34 ± 0.2
21 | AACAAGCAAUAUUACGACAG | -2.25 ± 0.078 | -1.76 ± 0.09
22 | GAUGAGCAAUAUUACGCAUG | -1.61 ± 0.13 | -2.14 ± 0.2
23 | AUAAAGCAAUAUUACGGAGU | -0.717 ± 0.072 | -0.598 ± 0.088
24 | GGAUAGCAAUAUUACGGCGU | 0.322 ± 0.093 | 0.626 ± 0.1
25 | UUAAAGCAAUAUUACGCAAA | -1.1 ± 0.079 | -0.177 ± 0.12

Row | Sequence | self-splicing fitness (ln) (30 °C) | self-splicing fitness (ln) (37 °C)
26 | GUCUAGCAAUAUUACGCCAU | -2.11 ± 0.26 | -2.04 ± 0.18
27 | GCAGAGCAAUAUUACGGACU | -2.18 ± 0.34 | -1.9 ± 0.21
28 | UGUAAGCAAUAUUACGCGAG | -3.32 ± 0.27 | -1.56 ± 0.17
29 | AGAGAGCAAUAUUACGAUUC | -3.41 ± 0.35 | -1.24 ± 0.32
30 | AAUAAGCAAUAUUACGGAAC | -4.53 ± 0.34 | -2.16 ± 0.23
31 | GGCCAGCAAUAUUACGAAAU | -2.92 ± 0.34 | -1.04 ± 0.18
32 | AUCUAGCAAUAUUACGUGCG | -1.47 ± 0.21 | -0.647 ± 0.17
33 | UCUUAGCAAUAUUACGGACG | -2.42 ± 0.3 | 
34 | AAAUAGCAAUAUUACGGUCG | -0.942 ± 0.065 | -0.272 ± 0.095
35 | CAGAAGCAAUAUUACGCACC | -3.18 ± 0.41 | -2.1 ± 0.46
36 | GCAGAGCAAUAUUACGAGUC | -2.97 ± 0.25 | -2.39 ± 0.32
37 | GCAUAGCAAUAUUACGGGCU | -2.22 ± 0.23 | -0.579 ± 0.17
38 | UGCAAGCAAUAUUACGUUCU | -0.995 ± 0.069 | -0.423 ± 0.084
39 | UAUAAGCAAUAUUACGUUUC | -3.5 ± 0.38 | -2.43 ± 0.35
40 | UAAUAGCAAUAUUACGACCA | -0.451 ± 0.2 | 0.216 ± 0.31
41 | CCAGAGCAAUAUUACGUUCC | -4.16 ± 0.31 | -2.6 ± 0.44
42 | GAAGAGCAAUAUUACGGGCU | -3.17 ± 0.17 | -3.07 ± 0.28
43 | GAAGAGCAAUAUUACGAAGA | -2.62 ± 0.26 | -2.48 ± 0.24
44 | ACCUAGCAAUAUUACGCUCG | -1.43 ± 0.12 | -1.48 ± 0.14
45 | CUUUAGCAAUAUUACGCAUC |  | -1.54 ± 0.43
46 | UGGUAGCAAUAUUACGAUGC | -3.09 ± 0.5 | -1.82 ± 0.43
47 | GUUGAGCAAUAUUACGUAAG | -2.08 ± 0.18 | -1.17 ± 0.19
48 | UCGUAGCAAUAUUACGUGAG | -3.55 ± 0.19 | -1.35 ± 0.15
49 | CAUGAGCAAUAUUACGAUUC | -3.18 ± 0.21 | -1.66 ± 0.19
50 | AGACAGCAAUAUUACGUACA | -0.745 ± 0.078 | -0.238 ± 0.097

Row | Sequence | self-splicing fitness (ln) (30 °C) | self-splicing fitness (ln) (37 °C)
51 | AAUAAGCAAUAUUACGCUGA | -1.81 ± 0.17 | -1.63 ± 0.18
52 | UAUUAGCAAUAUUACGCUCC | -2.75 ± 0.35 | 
53 | GAAUAGCAAUAUUACGAUUA | -0.73 ± 0.093 | 0.156 ± 0.11
54 | CGAAAGCAAUAUUACGUAAC |  | -0.987 ± 0.5
55 | AGACAGCAAUAUUACGUACG | -1.22 ± 0.07 | -0.121 ± 0.094
56 | CCGAAGCAAUAUUACGCAGC | -3.49 ± 0.23 | -2.36 ± 0.37
57 | UUCCAGCAAUAUUACGGAGG | -3.51 ± 0.17 | -1.03 ± 0.1
58 | CGACAGCAAUAUUACGUCAU | -3.41 ± 0.24 | -1.54 ± 0.14
59 | AUUAAGCAAUAUUACGUCUG | -1.74 ± 0.11 | -0.762 ± 0.12
60 | GGCAAGCAAUAUUACGUGCU | -3.91 ± 0.16 | -2.99 ± 0.2
61 | AAUUAGCAAUAUUACGACGA | -0.729 ± 0.12 | -0.15 ± 0.2
62 | UAAUAGCAAUAUUACGGUUA | -0.888 ± 0.11 | -0.925 ± 0.091
63 | CAUCAGCAAUAUUACGGAUA | -0.862 ± 0.06 | 0.0386 ± 0.074
64 | GGCAAGCAAUAUUACGACAG | -3.74 ± 0.22 | -2.63 ± 0.24
65 | AGCUAGCAAUAUUACGUGGG | -4.49 ± 0.2 | -2.72 ± 0.15
66 | GCCCAGCAAUAUUACGAGGG | -4 ± 0.18 | -2.74 ± 0.21
67 | UUCAAGCAAUAUUACGCUCA | -1.42 ± 0.16 | 0.0916 ± 0.2
68 | GUGGAGCAAUAUUACGGCAU | -2.46 ± 0.13 | -2.62 ± 0.17
69 | AGUAAGCAAUAUUACGUACA | -0.932 ± 0.1 | 0.0596 ± 0.13
70 | UACCAGCAAUAUUACGGGCG | -0.359 ± 0.072 | -0.277 ± 0.079
71 | UCCCAGCAAUAUUACGGUUC | -2.43 ± 0.11 | -1.8 ± 0.14
72 | ACAUAGCAAUAUUACGUCAU | -3.16 ± 0.1 | -2.35 ± 0.13
73 | UCGUAGCAAUAUUACGAGGU | -3.27 ± 0.21 | -2.06 ± 0.19
74 | ACUCAGCAAUAUUACGAGUA | -2.23 ± 0.12 | -1.1 ± 0.1
75 | AACAAGCAAUAUUACGUAAG | -1.93 ± 0.058 | -1.16 ± 0.077

Row | Sequence | self-splicing fitness (ln) (30 °C) | self-splicing fitness (ln) (37 °C)
76 | UAUUAGCAAUAUUACGAAUU | -2.51 ± 0.2 | -0.596 ± 0.21
77 | UAAGAGCAAUAUUACGAGAU | -3.76 ± 0.33 | -2.32 ± 0.31
78 | CCUCAGCAAUAUUACGCGAU | -4.95 ± 0.38 | -2.63 ± 0.22
79 | UCGGAGCAAUAUUACGGAAC | -3.36 ± 0.38 | 
80 | GCCCAGCAAUAUUACGACUA | -1.54 ± 0.1 | -0.508 ± 0.11
81 | UACAAGCAAUAUUACGGGAA | -2.41 ± 0.12 | -1.6 ± 0.097
82 | AUAAAGCAAUAUUACGGUAU | -0.836 ± 0.068 | -0.0795 ± 0.1
83 | CCACAGCAAUAUUACGUAGU | -3.22 ± 0.14 | -2.94 ± 0.19
84 | CGCAAGCAAUAUUACGCUCG | -3.87 ± 0.32 | -2.95 ± 0.29
85 | CAGUAGCAAUAUUACGUGCU | -2.95 ± 0.19 | -1.84 ± 0.3
86 | CUGUAGCAAUAUUACGACUU | -2.12 ± 0.21 | -1.36 ± 0.33
87 | CCGAAGCAAUAUUACGCGCA | -2.85 ± 0.28 | -1.95 ± 0.21
88 | GGAGAGCAAUAUUACGAAUC | -3.58 ± 0.49 | -2.4 ± 0.39
89 | AGUAAGCAAUAUUACGGUUC | -2.9 ± 0.19 | -1.55 ± 0.44
90 | AACGAGCAAUAUUACGUAUU | -3.1 ± 0.16 | -1.85 ± 0.14
91 | CCUGAGCAAUAUUACGCAUU | -4.02 ± 0.25 | -1.86 ± 0.23
92 | AUCGAGCAAUAUUACGUUGU | -4 ± 0.26 | -3.62 ± 0.31
93 | CCACAGCAAUAUUACGCCCA | -2.81 ± 0.14 | -2.36 ± 0.16
94 | GGUCAGCAAUAUUACGACGG | -0.435 ± 0.14 | -0.175 ± 0.16
95 | CACAAGCAAUAUUACGUGCG | -2.32 ± 0.098 | -0.908 ± 0.082
96 | GGUUAGCAAUAUUACGGGAC | -3 ± 0.3 | -1.44 ± 0.21
97 | GUGAAGCAAUAUUACGCCUA | -0.415 ± 0.11 | -0.226 ± 0.17
